Literature values, collected in article PMC3651761.
pKd: −log10 of the molar value.

Columns and labels:
IGF-IR (Homo sapiens) = IGF-IR (Homo sapiens) (UniProt P08069)
[1] = target: Met receptor (Homo sapiens) (UniProt P08581)
Sequence of UniProt P08581 (P08581 25-932): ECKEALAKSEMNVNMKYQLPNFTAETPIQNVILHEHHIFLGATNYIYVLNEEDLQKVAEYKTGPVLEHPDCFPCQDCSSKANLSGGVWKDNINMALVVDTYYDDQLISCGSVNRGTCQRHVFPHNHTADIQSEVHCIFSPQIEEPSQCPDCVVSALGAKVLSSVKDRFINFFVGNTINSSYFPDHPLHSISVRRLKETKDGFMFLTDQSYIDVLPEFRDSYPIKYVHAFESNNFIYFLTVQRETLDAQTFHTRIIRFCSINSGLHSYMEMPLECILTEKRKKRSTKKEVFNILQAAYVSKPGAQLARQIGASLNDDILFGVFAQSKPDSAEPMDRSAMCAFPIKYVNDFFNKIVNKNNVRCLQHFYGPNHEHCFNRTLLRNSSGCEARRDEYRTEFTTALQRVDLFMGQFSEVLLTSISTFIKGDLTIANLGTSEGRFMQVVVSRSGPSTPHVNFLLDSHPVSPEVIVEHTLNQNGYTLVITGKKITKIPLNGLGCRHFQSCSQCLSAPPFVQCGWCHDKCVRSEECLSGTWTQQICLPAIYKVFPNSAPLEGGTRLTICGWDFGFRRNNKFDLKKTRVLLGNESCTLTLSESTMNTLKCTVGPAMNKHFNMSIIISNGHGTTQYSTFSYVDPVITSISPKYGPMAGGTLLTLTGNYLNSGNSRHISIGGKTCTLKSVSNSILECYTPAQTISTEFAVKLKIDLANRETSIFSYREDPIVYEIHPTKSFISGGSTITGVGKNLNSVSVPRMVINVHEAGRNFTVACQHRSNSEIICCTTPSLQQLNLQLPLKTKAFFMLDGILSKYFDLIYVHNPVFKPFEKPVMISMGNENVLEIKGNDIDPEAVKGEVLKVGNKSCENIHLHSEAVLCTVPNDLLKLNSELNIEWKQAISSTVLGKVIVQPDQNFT

Sequence of UniProt P08069 (P08069 31-736, chain 1 of 2): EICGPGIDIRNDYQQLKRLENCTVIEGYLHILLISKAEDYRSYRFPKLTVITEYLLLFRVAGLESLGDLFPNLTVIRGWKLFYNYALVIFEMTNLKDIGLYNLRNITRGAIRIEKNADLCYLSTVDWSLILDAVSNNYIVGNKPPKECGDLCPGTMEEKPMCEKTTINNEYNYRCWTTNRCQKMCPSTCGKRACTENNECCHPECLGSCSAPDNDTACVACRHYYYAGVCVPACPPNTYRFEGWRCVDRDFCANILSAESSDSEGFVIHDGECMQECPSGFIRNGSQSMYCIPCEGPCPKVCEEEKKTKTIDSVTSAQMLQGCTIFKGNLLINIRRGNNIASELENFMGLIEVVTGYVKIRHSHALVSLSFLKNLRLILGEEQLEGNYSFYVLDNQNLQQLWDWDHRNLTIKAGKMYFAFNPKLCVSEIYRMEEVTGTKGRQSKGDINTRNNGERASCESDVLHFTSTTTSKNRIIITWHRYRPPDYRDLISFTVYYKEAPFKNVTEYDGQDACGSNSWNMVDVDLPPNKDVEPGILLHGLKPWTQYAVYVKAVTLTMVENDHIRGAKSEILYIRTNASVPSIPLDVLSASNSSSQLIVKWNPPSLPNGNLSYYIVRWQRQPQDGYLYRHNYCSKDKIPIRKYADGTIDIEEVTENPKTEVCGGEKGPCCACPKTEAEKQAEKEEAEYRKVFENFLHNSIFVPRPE
Sequence of UniProt P08069 (P08069 741-935, chain 2 of 2): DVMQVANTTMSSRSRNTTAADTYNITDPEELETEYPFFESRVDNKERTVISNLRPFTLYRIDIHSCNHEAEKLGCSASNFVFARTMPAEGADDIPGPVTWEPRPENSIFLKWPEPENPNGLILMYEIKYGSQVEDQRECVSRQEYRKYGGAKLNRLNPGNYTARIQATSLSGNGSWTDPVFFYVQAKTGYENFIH

pKd (IGF-IR (Homo sapiens)): 7.74
pKd [1]: 8.70
Substance: Decorin (from UniProt P07585)
